For assay [1], the target named is T1, mouse TNFR1 (biotinylated, immobilized on SPR chip) (mouse (Mus musculus), UniProt P25118 30-212, biotinylated (site not stated)).
T1 construct: also called murine TNFR1; mTNFR1
T1 sequence: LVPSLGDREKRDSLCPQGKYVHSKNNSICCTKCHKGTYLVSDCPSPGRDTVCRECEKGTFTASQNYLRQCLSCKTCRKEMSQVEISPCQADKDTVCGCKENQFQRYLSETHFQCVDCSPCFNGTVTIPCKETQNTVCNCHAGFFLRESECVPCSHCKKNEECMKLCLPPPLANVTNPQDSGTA
As to the kind of experiment: SPR (BIACORE 3000), biotinylated mouse TNFR1 on streptavidin chip, competition with chimeric TNFR1 proteins. Here is the method:
(§1) If the dAb is pre-incubated and equilibrated with a chimeric molecule that comprises the domain(s) of TNFR1 that the particular dAb binds, then flow of this mixture over the TNFR1 surface will produce a smaller SPR signal relative to the dAb alone.
(§2) The choice of TNFR1 surface is determined by the species specificity of the anti-TNFR1 dAb to be tested. Therefore anti-human TNFR1 dAbs were evaluated using a surface coated with human TNFR1 and anti-mouse TNFR1 dAbs were evaluated using a chip coated with mouse TNFR1.
(§3) Biotinylated TNFR1 was diluted in the appropriate SPR buffer and run across a streptavidin (SA) sensor chip in a BIACORE 3000 SPR instrument (Biacore International AB, Uppsala, Sweden). A low flow-rate (5-10 μl/minute) was used in order to maximise the contact time between the biotinylated TNFR1 and the streptavidin surface. Flow continued until the streptavidin surface was saturated with biotinylated material, in order to generate a chip with maximal TNFR1 surface.
Background: SPR reads the build-up and loss of mass on a sensor chip optically.

Assay [2] has as its target T2, human TNFR1 (biotinylated, immobilized on SPR chip) (human (Homo sapiens), UniProt P19438 30-211, biotinylated (site not stated)).
T2 construct: also called hTNFR1
T2 sequence: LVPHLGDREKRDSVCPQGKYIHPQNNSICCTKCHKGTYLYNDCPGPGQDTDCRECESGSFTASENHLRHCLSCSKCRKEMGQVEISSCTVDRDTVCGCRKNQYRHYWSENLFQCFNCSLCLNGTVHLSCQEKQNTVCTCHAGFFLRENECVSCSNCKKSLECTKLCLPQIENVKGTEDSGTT
Nature of the assay: SPR (BIACORE 3000), biotinylated human TNFR1 on streptavidin chip, competition with chimeric TNFR1 proteins. The method, then: as §1, §2, §3

B1: TAR2m-21-23 (other)
VH: EVQLLESGGGLVQPGGSLRLSCAASGFTFNRYSMGWLRQAPGKGLEWVSRIDSYGRGTYYEDPVKGRFSISRDNSKNTLYLQMNSLRAEDTAVYYCAKISQFGSNAFDYWGQGTQVTVSS
notes: Domain antibody (dAb), a single immunoglobulin VH variable domain; also called anti-mouse TNFR1 dAb
With B1, the binding result in assay [1] was “binds”.

B2: TAR2h-205 (other)
VH: EVQLLESGGGLVQPGGSLRLSCAASGFTFVKYSMGWVRQAPGKGLEWVSQISNTGGHTYYADSVKGRFTISRDNSKNTLYLQMNSLRAEDTAVYYCAKYTGRWEPFDYWGQGTLVTVSS
notes: Domain antibody (dAb), a single immunoglobulin VH variable domain; also called anti-human TNFR1 dAb
B2: the binding result in assay [2] was “binds”.
